Test results: publication PMC5985294

What follows are substances tested against Neutrophil elastase (NE), active, human (human) (UniProt P08246).
UniProt P08246, sequence (P08246 30-267): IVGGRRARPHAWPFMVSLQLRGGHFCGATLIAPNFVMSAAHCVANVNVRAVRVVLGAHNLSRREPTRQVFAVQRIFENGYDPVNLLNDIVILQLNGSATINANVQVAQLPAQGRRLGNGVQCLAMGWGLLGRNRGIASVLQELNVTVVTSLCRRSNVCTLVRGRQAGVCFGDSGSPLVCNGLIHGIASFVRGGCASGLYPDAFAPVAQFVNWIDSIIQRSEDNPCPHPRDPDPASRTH
With “MMP-9-treated SLPI, MMP-9/SLPI molar ratio 1/5 (from UniProt P03973 26-41; P03973 42-96; P03973 97-132)” the IC50 of inhibition of NE (5 nM) degradation of fluorogenic elastase substrate V (MeOSuc-Ala-Ala-Pro-Val-AMC), after 30 min pre-incubation at 37°C was 76.3 nM and the IC50 of inhibition of NE (5 nM) gelatinolytic activity, DQ-gelatin degradation, with 50 µM SB-3CT was 51.2 nM.
For “MMP-9-treated SLPI, MMP-9/SLPI molar ratio 1/20 (from UniProt P03973 26-96; P03973 97-132)”, the IC50 of inhibition of NE (5 nM) degradation of fluorogenic elastase substrate V (MeOSuc-Ala-Ala-Pro-Val-AMC), after 30 min pre-incubation at 37°C was 28.9 nM and the IC50 of inhibition of NE (5 nM) gelatinolytic activity, DQ-gelatin degradation, with 50 µM SB-3CT was 5.24 nM.
For “Secretory leukocyte peptidase inhibitor (SLPI), intact (from UniProt P03973 26-132) (natural protein)”, the IC50 of inhibition of NE (5 nM) degradation of fluorogenic elastase substrate V (MeOSuc-Ala-Ala-Pro-Val-AMC), after 30 min pre-incubation at 37°C was 8.71 nM and the IC50 of inhibition of NE (5 nM) gelatinolytic activity, DQ-gelatin degradation, with 50 µM SB-3CT was 0.97 nM.
